From publication doi:10.1101/211250 (bioRxiv, 2017)
Non-standard residues stand in square brackets, D forms with d. No end group written: not given here. pS = N[C@@H](COP(=O)(O)O)C(=O)O

B9: FITC-labeled p-3 phosphorylated RPS6KA2 peptide (peptide)
peptide: RLT[pS]TRL
modifications: also: FITC label (position not given here)
B11: FITC-labeled p-1 phosphorylated MCC peptide (peptide)
peptide: HTNET[pS]L
modifications: also: FITC label (position not given here)

Tests used:
[1] = target: FITC-labeled p-1 phosphorylated MCC peptide (human); experiment: MST
[2] = target: FITC-labeled p-3 phosphorylated RPS6KA2 peptide (human); experiment: MST
[3] = target: FITC-labeled p-6 phosphorylated TANC1 peptide (human); experiment: MST
[4] = target: FITC-labeled phosphomimetic RPS6KA2 peptide (p-3 Ser to Glu) (human) (UniProt Q15349); experiment: MST
[5] = target: FITC-labeled phosphomimetic TANC1 peptide (p-6 Ser to Glu) (human) (UniProt Q9C0D5); experiment: MST
[6] = target: B9; experiment: MST
[7] = target: B11; experiment: MST
Scribble PDZ1 [8] = target: T1, Scribble PDZ1 (human, UniProt Q14160 719-829); experiment: MST
Scribble PDZ1 [9] = target: T1, Scribble PDZ1; experiment: ITC
Scribble PDZ1 K746A = Scribble PDZ1 K746A (human, UniProt Q14160 719-829, K746A); experiment: ITC
Scribble PDZ1 R762A = Scribble PDZ1 R762A (human, UniProt Q14160 719-829, R762A); experiment: ITC
Scribble PDZ1 R801A = Scribble PDZ1 R801A (human, UniProt Q14160 719-829, R801A); experiment: ITC
[10] = target: Scribble PDZ1 R762A/A743R (human, UniProt Q14160 719-829, R762A | A743R); experiment: ITC
Chain of Scribble PDZ1 R762A/A743R (Q14160 719-829 A743R/R762A): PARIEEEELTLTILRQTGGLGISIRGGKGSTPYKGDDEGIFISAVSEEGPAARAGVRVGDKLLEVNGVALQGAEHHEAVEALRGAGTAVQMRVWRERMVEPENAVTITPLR

Chain of Scribble PDZ1 R762A (Q14160 719-829 R762A): as the sequence (Q14160 719-829 A743R/R762A) above, with R25A counted along it
T1 sequence (Q14160 719-829): as the sequence (Q14160 719-829 A743R/R762A) above, with R25A, A44R counted along it
Chain of Scribble PDZ1 K746A (Q14160 719-829 K746A): as the sequence (Q14160 719-829 A743R/R762A) above, with R25A, K28A, A44R counted along it
Chain of Scribble PDZ1 R801A (Q14160 719-829 R801A): as the sequence (Q14160 719-829 A743R/R762A) above, with R25A, A44R, R83A counted along it
Chain of FITC-labeled phosphomimetic RPS6KA2 peptide (p-3 Ser to Glu) (human) (Q15349 whole entry, looked up, tested part not stated): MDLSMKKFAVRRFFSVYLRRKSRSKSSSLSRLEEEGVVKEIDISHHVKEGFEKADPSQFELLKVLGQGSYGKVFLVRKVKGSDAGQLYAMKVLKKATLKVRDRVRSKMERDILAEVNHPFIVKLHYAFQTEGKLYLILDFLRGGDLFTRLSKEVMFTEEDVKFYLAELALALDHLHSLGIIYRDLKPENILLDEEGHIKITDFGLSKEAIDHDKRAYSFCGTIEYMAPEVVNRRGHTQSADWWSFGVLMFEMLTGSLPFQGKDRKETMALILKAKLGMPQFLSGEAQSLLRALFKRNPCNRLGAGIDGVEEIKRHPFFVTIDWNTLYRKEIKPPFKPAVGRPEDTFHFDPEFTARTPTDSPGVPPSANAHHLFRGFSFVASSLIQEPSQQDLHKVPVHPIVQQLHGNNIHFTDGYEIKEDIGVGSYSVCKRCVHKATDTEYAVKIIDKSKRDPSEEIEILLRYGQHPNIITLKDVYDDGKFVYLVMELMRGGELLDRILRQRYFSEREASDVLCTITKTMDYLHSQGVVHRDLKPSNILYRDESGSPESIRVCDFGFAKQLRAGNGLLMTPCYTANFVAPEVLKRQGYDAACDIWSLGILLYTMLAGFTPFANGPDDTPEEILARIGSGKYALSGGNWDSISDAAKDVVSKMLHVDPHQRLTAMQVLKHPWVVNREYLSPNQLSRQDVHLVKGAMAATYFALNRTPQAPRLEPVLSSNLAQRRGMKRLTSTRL
Chain of FITC-labeled phosphomimetic TANC1 peptide (p-6 Ser to Glu) (human) (Q9C0D5 whole entry, looked up, tested part not stated): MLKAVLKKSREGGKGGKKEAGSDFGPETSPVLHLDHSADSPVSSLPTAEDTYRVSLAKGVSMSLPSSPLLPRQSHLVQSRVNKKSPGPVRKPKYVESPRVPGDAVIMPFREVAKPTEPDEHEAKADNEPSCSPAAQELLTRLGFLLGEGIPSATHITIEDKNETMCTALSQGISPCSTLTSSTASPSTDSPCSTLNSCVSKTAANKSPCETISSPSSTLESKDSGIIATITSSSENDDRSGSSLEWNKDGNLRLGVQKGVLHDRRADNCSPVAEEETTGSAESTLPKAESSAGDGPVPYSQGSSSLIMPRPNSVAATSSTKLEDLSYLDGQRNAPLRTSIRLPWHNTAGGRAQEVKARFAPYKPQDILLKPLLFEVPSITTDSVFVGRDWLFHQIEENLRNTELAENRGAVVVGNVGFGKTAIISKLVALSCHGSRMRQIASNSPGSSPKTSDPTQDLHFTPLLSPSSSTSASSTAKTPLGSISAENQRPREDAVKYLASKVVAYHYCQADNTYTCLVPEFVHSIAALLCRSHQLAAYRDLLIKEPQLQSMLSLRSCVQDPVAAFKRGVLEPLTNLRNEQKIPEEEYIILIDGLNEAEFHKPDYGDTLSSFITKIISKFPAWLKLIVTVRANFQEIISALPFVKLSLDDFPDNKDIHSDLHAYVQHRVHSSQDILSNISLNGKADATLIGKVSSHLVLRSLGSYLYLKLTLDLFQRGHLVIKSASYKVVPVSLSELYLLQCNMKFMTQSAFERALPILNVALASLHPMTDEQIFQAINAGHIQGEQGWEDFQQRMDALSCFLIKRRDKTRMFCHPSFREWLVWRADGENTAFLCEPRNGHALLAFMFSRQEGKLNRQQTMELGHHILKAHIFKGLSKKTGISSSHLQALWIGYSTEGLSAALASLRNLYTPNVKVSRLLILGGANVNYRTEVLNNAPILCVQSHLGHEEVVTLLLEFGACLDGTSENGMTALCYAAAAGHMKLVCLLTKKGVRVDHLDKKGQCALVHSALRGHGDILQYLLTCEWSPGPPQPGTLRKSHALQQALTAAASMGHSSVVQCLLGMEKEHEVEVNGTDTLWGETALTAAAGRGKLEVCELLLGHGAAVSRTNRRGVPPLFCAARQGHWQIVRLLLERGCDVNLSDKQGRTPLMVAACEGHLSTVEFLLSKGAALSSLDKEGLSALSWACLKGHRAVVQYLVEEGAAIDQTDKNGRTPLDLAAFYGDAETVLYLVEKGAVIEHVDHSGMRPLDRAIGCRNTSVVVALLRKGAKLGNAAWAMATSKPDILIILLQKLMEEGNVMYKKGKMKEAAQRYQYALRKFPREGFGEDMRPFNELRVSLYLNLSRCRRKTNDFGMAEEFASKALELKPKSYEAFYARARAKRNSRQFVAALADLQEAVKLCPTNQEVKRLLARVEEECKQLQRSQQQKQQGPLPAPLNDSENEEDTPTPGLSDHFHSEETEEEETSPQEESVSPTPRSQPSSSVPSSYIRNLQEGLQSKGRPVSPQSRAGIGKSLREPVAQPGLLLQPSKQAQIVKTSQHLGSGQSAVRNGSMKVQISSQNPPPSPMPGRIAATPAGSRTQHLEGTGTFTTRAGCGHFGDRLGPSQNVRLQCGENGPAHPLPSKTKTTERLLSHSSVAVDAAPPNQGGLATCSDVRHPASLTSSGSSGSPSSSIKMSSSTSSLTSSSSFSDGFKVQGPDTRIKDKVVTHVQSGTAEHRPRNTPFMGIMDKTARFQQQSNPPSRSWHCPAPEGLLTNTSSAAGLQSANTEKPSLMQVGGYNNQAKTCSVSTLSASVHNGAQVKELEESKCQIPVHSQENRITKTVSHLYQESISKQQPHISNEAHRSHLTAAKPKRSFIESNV

DLG1 PDZ2 (domain or fragment)
fold lower affinity than for the unphosphorylated peptide [1]: 9 fold
fold higher affinity than for the unphosphorylated peptide [2]: 1.3 fold
fold lower affinity than for the unphosphorylated peptide [3]: 2.9 fold
fold higher affinity than for the unphosphorylated peptide [4]: 7 fold
fold lower affinity than for the unphosphorylated peptide [5]: 2.4 fold

B1: Shank1 PDZ (domain or fragment)
chain: TVLLQKKDSEGFGFVLRGAKAQTPIEEFTPTPAFPALQYLESVDEGGVAWRAGLRMGDFLIEVNGQNVVKVGHRQVVNMIRQGGNTLMVKVVMVT
fold lower affinity than for the unphosphorylated peptide [6]: 3.6 fold
fold lower affinity than for the unphosphorylated peptide [7]: 3 fold

B2: FITC-labelled phosphorylated RPS6KA1 peptide (S732, p-3) (peptide)
peptide: VRKLP[pS]TTL
modifications: also: FITC label, position not given here
Kd (Scribble PDZ1 [8]): 390 nM

B3: unphosphorylated RPS6KA2 peptide (MKRLTSTRL-coo-) (peptide)
peptide: MKRLTSTRL-OH
binding result (Scribble PDZ1 [9]): binds
binding result (Scribble PDZ1 K746A): binds
binding result (Scribble PDZ1 R762A): binds
binding result (Scribble PDZ1 R801A): binds
binding result [10]: binds

B4: p-1 phosphorylated MCC peptide (RPHTNETpSL-coo-) (peptide)
peptide: RPHTNET[pS]L-OH
modifications: N-terminus assumed
SMILES: CC(C)C[C@H](NC(=O)[C@H](COP(=O)(O)O)NC(=O)[C@@H](NC(=O)[C@H](CCC(=O)O)NC(=O)[C@H](CC(N)=O)NC(=O)[C@@H](NC(=O)[C@H](Cc1c[nH]cn1)NC(=O)[C@@H]1CCCN1C(=O)[C@@H](N)CCCNC(=N)N)[C@@H](C)O)[C@@H](C)O)C(=O)O
fold lower KD than for the unphosphorylated peptide (Scribble PDZ1 [9]): 2 fold
binding result (Scribble PDZ1 R762A): binds
binding result [10]: binds

B5: FITC-labeled p-6 phosphorylated TANC1 peptide (peptide)
peptide: KR[pS]FIESNV
modifications: also: FITC label, position not given here
binding result (Scribble PDZ1 [8]): binds

B6: FITC-labeled unphosphorylated TANC1 peptide (KRSFIESNV-coo-) (peptide)
peptide: KRSFIESNV-OH
modifications: also: FITC label, position not given here
binding result (Scribble PDZ1 [8]): binds

B7: p-3 phosphorylated RPS6KA2 peptide (MKRLTpSTRL-coo-) (peptide)
peptide: MKRLT[pS]TRL-OH
modifications: N-terminus assumed
SMILES: CSCC[C@H](N)C(=O)N[C@@H](CCCCN)C(=O)N[C@@H](CCCNC(=N)N)C(=O)N[C@@H](CC(C)C)C(=O)N[C@H](C(=O)N[C@@H](COP(=O)(O)O)C(=O)N[C@H](C(=O)N[C@@H](CCCNC(=N)N)C(=O)N[C@@H](CC(C)C)C(=O)O)[C@@H](C)O)[C@@H](C)O
fold lower KD than for the unphosphorylated peptide (Scribble PDZ1 [9]): 5 fold
binding result (Scribble PDZ1 K746A): binds
binding result (Scribble PDZ1 R762A): binds
binding result (Scribble PDZ1 R801A): binds
binding result [10]: binds

B8: FITC-labelled unphosphorylated RPS6KA1 peptide (VRKLPSTTL-coo-) (peptide)
peptide: VRKLPSTTL-OH
modifications: also: FITC label, position not given here
Kd (Scribble PDZ1 [8]): 1000 nM

B9
binding result (Scribble PDZ1 [8]): binds

B10: FITC-labeled unphosphorylated RPS6KA2 peptide (RLTSTRL-coo-) (peptide)
peptide: RLTSTRL-OH
modifications: also: FITC label, position not given here
binding result (Scribble PDZ1 [8]): binds

B11
binding result (Scribble PDZ1 [8]): binds

B12: FITC-labeled phosphomimetic RPS6KA2 peptide (p-3 Ser to Glu) (peptide)
peptide: RLTETRL
modifications: also: FITC label, position not given here
binding result (Scribble PDZ1 [8]): binds

B13: FITC-labeled unphosphorylated MCC peptide (HTNETSL-coo-) (peptide)
peptide: HTNETSL-OH
modifications: also: FITC label, position not given here
binding result (Scribble PDZ1 [8]): binds

B14: unphosphorylated MCC peptide (RPHTNETSL-coo-) (peptide)
peptide: RPHTNETSL-OH
binding result (Scribble PDZ1 [9]): binds
binding result (Scribble PDZ1 R762A): binds
binding result [10]: binds
